# Measured values published in publication PMC3472039 (Journal of molecular biology, 2012).
# Square brackets hold non-standard residues; d marks the D form. Ends that are not written are not given here. SeMet = C[Se]CC[C@H](N)C(=O)O
# B1: SeMet-QkI-Qua1(14-67) C35S (domain or fragment, UniProt Q9QYS9 14-67, looked up)
# chain: TPDYL[SeMet]QL[SeMet]NDKKL[SeMet]SSLPNFSGIFNHLERLLDEEISRVRKD[SeMet]YNDTLNGSTEK
# Target: the molecule itself
# Experiment: crystal structure
protein,measurement,value
B1,stoichiometry N,2
